Experimental data from US20230340155A1 (published 2023).
Substitutions are numbered along the chain they refer to. Names and notes keep the numbering of the source. One block for each binder: values may come before it.

How the values were obtained:
cyno PD-1 (SPR analyte) = target: T1, cyno PD-1 (SPR analyte) (cynomolgus monkey); test: SPR, ProteOn XPR36, mAb captured by anti-human IgG Fc, cyno PD-1 as analyte, 25 C
T1 construct: Construct of the soluble analyte is not described; also called cynomolgus PD-1
Description: Affinity measurements were performed using a ProteOn XPR36 system (BioRad). […] Approximately 5000 RU (response units) of mAbs were immobilized. The kinetic experiments were performed at 25° C. in running buffer (DPBS+0.01% P20+100 µg/mL BSA). To perform kinetic experiments, 200 RU of mAbs were captured followed by injections of analytes (human and cyno PD-1) at concentrations ranging from 1.563 nM to 400 nM (in a 4-fold serial dilution). The association phase was monitored for 3 minutes at 50 µL/min, then followed by 10 or 15 minutes of buffer flow (dissociation phase). The chip surface was regenerated with two 18 second pulses of 100 mM H₃PO₄ (Sigma, Cat#7961) at 100 µL/min.
The collected data were processed using ProteOn Manager software. First, the data was corrected for background using inter-spots. Then, double reference subtraction of the data was performed by using the buffer injection for analyte injections. The kinetic analysis of the data was performed using a Langmuir 1:1 binding model. The result for each mAb was reported in the format of ka (On-rate), kd (Off-rate) and KD (equilibrium dissociation constant).
Affinity of the antibodies to human and cyno PD-1 was measured using SPR as described in Example 1.

[1] = target: T2, biotinylated Human PD-1/PDCD1 (Acro Biosystems, Cat# PD1-H82E4) (human, UniProt Q15116 25-167, biotinylated); test: Fab ELISA, Fab captured by anti-Fd(CH1) antibody, 5 nM biotinylated human PD-1, streptavidin-HRP chemiluminescence
T2 construct: Bought reagent; whole mature entry named
T2 sequence (Q15116 25-167 limits assumed): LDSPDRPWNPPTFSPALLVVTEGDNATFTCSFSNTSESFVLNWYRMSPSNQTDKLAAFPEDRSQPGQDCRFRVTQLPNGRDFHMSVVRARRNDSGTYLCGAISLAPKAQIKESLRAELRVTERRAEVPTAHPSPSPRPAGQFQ
Description: For follow-up screening, plasmid DNA was prepared from overnight culture of the TG-1 Escherichia coli cells and the pIX gene was excised by NheI/SpeI digestion. After ligation, the DNA was transformed into TG-1 cells and grown on LB/Agar plates overnight. The next day, colonies were picked, grown overnight, and the cultures used for (i) colony sequencing of the V- regions, and (ii) induction of Fab production. For Fab production, the overnight culture was diluted 100 folds in new media and grown for 5-6 hours at 37° C. Fab production was induced by the addition of fresh media containing IPTG and the cultures were grown overnight at 30° C. The following day, the cultures were spun down and the supernatants, containing the soluble Fab proteins, were used for Fab ELISA. For the ELISA, the soluble Fab proteins were captured onto plates by a polyclonal anti-Fd(CH1) antibody. After washing and blocking, biotinylated Human PD-1/PDCD1 was added at 5 nM concentration. […] The biotinylated human PD-1 was detected by HRP-conjugated streptavidin with chemiluminescence measured in a plate reader.

B1: PD1B1085 (antibody, human IgG1, kappa, V domains shown)
VH: QVQLVQSGSELKKPGASVKVSCKASGYTFTDYSMHWVRQAPGQGLEWMGWINIETGYPTYAQGFTGRFVFSLDTSVSTAYLQISSLKAEDTAVYFCARDYYGTYFYAMDYWGQGTLVTVSS
VL: EIVLTQSPATLSLSPGERATLSCTASSSVSSSYLHWYQQKPGLAPRLLIYSTSNLASGIPDRFSGSGSGTDYTLTISRLEPEDFAVYYCHQYHRSPLTFGQGTKLEIKR
notes: IgG1; also called PD1H585/PD1L469; E57Y (VH) variant of PD1B878
- Kd (cyno PD-1 (SPR analyte)): 6.45 nM
- koff (cyno PD-1 (SPR analyte)): 0.00129 s⁻¹
- kon (cyno PD-1 (SPR analyte)): 200000 M⁻¹ s⁻¹

B2: PD1B878 Fab variant with heavy chain PD1H585 (E57Y) (Fab, V domains shown)
VH: B1 VH
VL: EIVLTQSPATLSLSPGERATLSCTASSSVSSSYLHWYQQKPGLAPRLLIYSTSNLASGIPDRFSGSGSGTDYTLTISRLEPEDFAVYYCHQYHRSPLTFGQGTKLEIK
notes: Soluble Fab of the non-combinatorial CDR scan
- fold change in ELISA binding versus the parental Fab [1]: 10 fold

B3: PD1B1086 (antibody, human IgG1, kappa, V domains shown)
VH: B1 VH with Y57H
VL: B1 VL
notes: IgG1; also called PD1H586/PD1L469; E57H (VH) variant of PD1B878
- Kd (cyno PD-1 (SPR analyte)): 31.8 nM
- koff (cyno PD-1 (SPR analyte)): 0.00544 s⁻¹
- kon (cyno PD-1 (SPR analyte)): 171000 M⁻¹ s⁻¹

B5: PD1B878 Fab variant with heavy chain PD1H586 (E57H) (Fab, V domains shown)
VH: B1 VH with Y57H
VL: B2 VL
notes: as for B2
- fold change in ELISA binding versus the parental Fab [1]: 10 fold

B7: PD1B1087 (antibody, human IgG1, kappa, V domains shown)
VH: B1 VH with Y57W
VL: B1 VL
notes: IgG1; also called PD1H587/PD1L469; E57W (VH) variant of PD1B878
- Kd (cyno PD-1 (SPR analyte)): 11.6 nM
- koff (cyno PD-1 (SPR analyte)): 0.00247 s⁻¹
- kon (cyno PD-1 (SPR analyte)): 212000 M⁻¹ s⁻¹

B8: PD1B878 Fab variant with light chain PD1L651 (V29F) (Fab, V domains shown)
VH: B1 VH with Y57E
VL: B2 VL with V29F
notes: as for B2
- fold change in ELISA binding versus the parental Fab [1]: 10 fold

B9: PD1B878 Fab variant with heavy chain PD1H587 (E57W) (Fab, V domains shown)
VH: B1 VH with Y57W
VL: B2 VL
notes: as for B2
- fold change in ELISA binding versus the parental Fab [1]: 10 fold

B12: PD1B878 Fab variant with light chain PD1L652 (S30P) (Fab, V domains shown)
VH: B1 VH with Y57E
VL: B2 VL with S30P
notes: as for B2
- fold change in ELISA binding versus the parental Fab [1]: 10 fold

B13: PD1B1089 (antibody, human IgG1, kappa, V domains shown)
VH: B1 VH with Y57E
VL: B1 VL with S30P
notes: IgG1; also called PD1H405/PD1L652; S30P (VL) variant of PD1B878
- Kd (cyno PD-1 (SPR analyte)): 90 nM
- koff (cyno PD-1 (SPR analyte)): 0.00839 s⁻¹
- kon (cyno PD-1 (SPR analyte)): 93200 M⁻¹ s⁻¹

B16: PD1B1088 (antibody, human IgG1, kappa, V domains shown)
VH: B1 VH with Y57E
VL: B1 VL with V29F
notes: IgG1; also called PD1H405/PD1L651; V29F (VL) variant of PD1B878
- Kd (cyno PD-1 (SPR analyte)): 72.4 nM
- koff (cyno PD-1 (SPR analyte)): 0.00479 s⁻¹
- kon (cyno PD-1 (SPR analyte)): 66100 M⁻¹ s⁻¹

More lines, now with the values ahead:

- Kd (cyno PD-1 (SPR analyte)): 4.23 nM
- koff (cyno PD-1 (SPR analyte)): 0.000781 s⁻¹
- kon (cyno PD-1 (SPR analyte)): 185000 M⁻¹ s⁻¹
B4: PD1B1095 (antibody, human IgG1, kappa, V domains shown)
VH: B1 VH with Y57W
VL: B1 VL with S30P
notes: IgG1; also called PD1H587/PD1L652; E57W (VH), S30P (VL) variant of PD1B878

- Kd (cyno PD-1 (SPR analyte)): 1.43 nM
- koff (cyno PD-1 (SPR analyte)): 0.000185 s⁻¹
- kon (cyno PD-1 (SPR analyte)): 130000 M⁻¹ s⁻¹
B6: PD1B1090 (antibody, human IgG1, kappa, V domains shown)
VH: B1 VH
VL: B1 VL with V29F
notes: IgG1; also called PD1H585/PD1L651; E57Y (VH), V29F (VL) variant of PD1B878

- Kd (cyno PD-1 (SPR analyte)): 9.32 nM
- koff (cyno PD-1 (SPR analyte)): 0.000924 s⁻¹
- kon (cyno PD-1 (SPR analyte)): 99100 M⁻¹ s⁻¹
B10: PD1B1091 (antibody, human IgG1, kappa, V domains shown)
VH: B1 VH with Y57H
VL: B1 VL with V29F
notes: IgG1; also called PD1H586/PD1L651; E57H (VH), V29F (VL) variant of PD1B878

- Kd (cyno PD-1 (SPR analyte)): 2.18 nM
- koff (cyno PD-1 (SPR analyte)): 0.000368 s⁻¹
- kon (cyno PD-1 (SPR analyte)): 169000 M⁻¹ s⁻¹
B11: PD1B1093 (antibody, human IgG1, kappa, V domains shown)
VH: B1 VH
VL: B1 VL with S30P
notes: IgG1; also called PD1H585/PD1L652; E57Y (VH), S30P (VL) variant of PD1B878

- Kd (cyno PD-1 (SPR analyte)): 3.18 nM
- koff (cyno PD-1 (SPR analyte)): 0.000411 s⁻¹
- kon (cyno PD-1 (SPR analyte)): 129000 M⁻¹ s⁻¹
B14: PD1B1092 (antibody, human IgG1, kappa, V domains shown)
VH: B1 VH with Y57W
VL: B1 VL with V29F
notes: IgG1; also called PD1H587/PD1L651; E57W (VH), V29F (VL) variant of PD1B878

- Kd (cyno PD-1 (SPR analyte)): 12 nM
- koff (cyno PD-1 (SPR analyte)): 0.00162 s⁻¹
- kon (cyno PD-1 (SPR analyte)): 135000 M⁻¹ s⁻¹
B15: PD1B1094 (antibody, human IgG1, kappa, V domains shown)
VH: B1 VH with Y57H
VL: B1 VL with S30P
notes: IgG1; also called PD1H586/PD1L652; E57H (VH), S30P (VL) variant of PD1B878
